Laboratory results: US20190094207A1 (JAPANESE FOUNDATION FOR CANCER RESEARCH, published 2019)

What was measured:
[1] = target: T1, Wild type HP1α (His tag or GST tag attached) (UniProt P45973 1-191); test: alpha assay with acceptor and donor beads capturing His tag or GST tag
T1 construct: also called heterochromatin protein 1; not shown: His tag or GST tag
Method: If a candidate compound is added in the binding assay system, a compound influencing the binding of INCENP and HP1 can be screened. Further, a system for analyzing the binding of HP1 and INCENP based on an alpha assay, which is more sensitive and easier in operation, was constructed. The interaction between HP1α and INCENP was determined by using acceptor beads or donor beads that can capture His tag or GST tag and detecting fluorescent signal in accordance with a conventional method. As a result of that His tag or GST tag was attached to HP1α and a region at positions 160 to 210 in INCENP (SEQ ID NO: 10) and the aforementioned alpha assay using acceptor beads and donor beads was carried out, a binding can be sensitively detected. Accordingly, owing to HTS using the binding assay or alpha assay, compounds influencing the binding of HP1 and INCENP can be screened.

[2] = target: T2, GST-Aurora B (UniProt Q96GD4 1-344, limits assumed); test: GST pull down with recombinant full-length INCENP + GST-Aurora B, without HP1α, with HP1α WT or with I165E; immunoblot and bar chart of Hec1 binding
T2 construct: not shown: GST
Method: Then, enzyme kinetics analysis of Aurora B was carried out. […] Further, analysis of proteins binding to GST-Aurora B was carried out by the GST pull down assay. As a result, the amount of Hec1 binding to GST-Aurora B increased in the conditions where HP1 can bind to INCENP. […] Accordingly, binding of HP1α to INCENP is required for activating Aurora B.

[3] = target: INCENP (Inner Centromere Protein), endogenous, as part of the chromosomal passenger complex (CPC) (human, UniProt Q9NQS7 1-918); test: INCENP immunoprecipitated from mitotic HeLa cell extract; amount of coprecipitated protein (INCENP in the same precipitate: 1280 pmol)
Method: The cells in the mitotic phase were incubated in a solution, which was prepared by adding 1 U/μl OmniCleave Endonuclease (manufactured by Epicentre) in the above immunoprecipitation buffer, at 4° C. for 30 minutes. The solution was centrifuged at 4° C. and 15,000 rpm for 10 minutes and the supernatant was further centrifuged. The resultant supernatant was used for immunoprecipitation. Protein A-Sepharose (manufactured by Bio-Rad) having an antibody bound thereto, was allowed to react with cell extracts and subjected to immunoprecipitation. […]
Next, whether or not binding to INCENP differs among the subtypes of HP1 was analyzed (FIG. 1B). […] Mitotic HeLa cell extracts were subjected to immunoprecipitation with an INCENP antibody or control IgG and then analyzed by immunoblotting using antibodies against INCENP, Aurora B (clone 6, manufactured by BD Bioscience) and Survivin (71G4B7E, manufactured by Cell Signaling Technology) constituting CPC; an HP1α antibody (clone 15.19s2, manufactured by Millipore), an HP1β antibody (clone 1MOD-1A9, manufactured by Millipore) and an HP1 γ antibody (clone 2MOD-1G6, manufactured by Millipore).
Quantitative analysis was carried out using purified recombinant HP1-subtype proteins.

[4] = target: T1, Wild type HP1α (His tag or GST tag …); test: isothermal titration calorimetry, average of 5 experiments
Method: (§1) Wild type HP1α and a region at positions 121 to 270 in INCENP (SEQ ID NO: 8, INCENP WT) were used in the binding assay. The region at positions 121 to 270 in INCENP contains an important motif […], required for binding to HP1. A mutant (SEQ ID NO: 9, INCENP 3A) was obtained by substituting three amino acids in this region with alanine residues and used as a control. A dissociation constant thereof was determined by isothermal titration calorimetry. As an isothermal titration calorimetry apparatus, any device may be used. For example, using MicroCal iTC2000 system (manufactured by GE healthcare biosciences), measurement may be carried out, in accordance with a conventional method.
(§2) The above peptides, to which His tag or GST tag was attached, were subjected to isothermal titration calorimetry to determine a dissociation constant. Note that, the dissociation constant was computationally obtained based on average values of 5 experiments.

[5] = target: T1, Wild type HP1α (His tag or GST tag …); test: isothermal titration calorimetry
Method: as §1, §2

T1 sequence (P45973 whole entry): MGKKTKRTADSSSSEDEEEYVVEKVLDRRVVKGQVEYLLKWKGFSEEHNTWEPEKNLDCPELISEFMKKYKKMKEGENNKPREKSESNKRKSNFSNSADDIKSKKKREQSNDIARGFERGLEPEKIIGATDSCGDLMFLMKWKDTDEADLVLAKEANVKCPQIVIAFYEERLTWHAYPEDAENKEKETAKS
Sequence of INCENP (Inner Centromere Protein), endogenous, as part of the chromosomal passenger complex (CPC) (Q9NQS7 whole entry, one chain of several): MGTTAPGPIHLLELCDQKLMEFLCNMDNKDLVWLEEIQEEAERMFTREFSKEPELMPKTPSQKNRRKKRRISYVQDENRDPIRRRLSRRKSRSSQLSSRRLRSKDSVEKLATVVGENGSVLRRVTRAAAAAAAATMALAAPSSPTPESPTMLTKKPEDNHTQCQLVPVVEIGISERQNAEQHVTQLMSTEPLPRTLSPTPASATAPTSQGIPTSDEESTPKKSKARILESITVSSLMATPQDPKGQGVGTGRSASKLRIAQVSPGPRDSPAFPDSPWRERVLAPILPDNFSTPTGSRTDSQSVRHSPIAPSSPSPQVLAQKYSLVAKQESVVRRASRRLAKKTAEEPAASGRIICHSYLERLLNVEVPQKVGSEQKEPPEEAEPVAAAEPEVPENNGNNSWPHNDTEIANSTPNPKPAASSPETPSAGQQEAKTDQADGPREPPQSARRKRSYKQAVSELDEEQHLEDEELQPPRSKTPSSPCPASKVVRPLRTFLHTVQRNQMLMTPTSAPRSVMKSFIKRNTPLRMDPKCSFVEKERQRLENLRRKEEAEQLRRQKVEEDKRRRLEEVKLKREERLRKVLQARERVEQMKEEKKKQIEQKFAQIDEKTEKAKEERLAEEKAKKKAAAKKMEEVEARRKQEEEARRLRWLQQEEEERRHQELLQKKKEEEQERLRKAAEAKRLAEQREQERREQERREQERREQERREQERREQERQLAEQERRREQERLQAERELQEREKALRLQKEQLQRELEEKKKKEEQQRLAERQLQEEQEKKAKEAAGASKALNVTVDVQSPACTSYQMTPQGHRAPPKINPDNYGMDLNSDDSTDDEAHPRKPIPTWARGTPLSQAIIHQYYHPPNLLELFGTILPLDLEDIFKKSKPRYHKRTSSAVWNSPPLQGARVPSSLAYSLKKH

B1: Region at positions 160 to 210 in INCENP (peptide)
chain: TQCQLVPVVEIGISERQNAEQHVTQLMSTEPLPRTLSPTPASATAPTSQG
notes: Used in the alpha assay with HP1α; also called INCENP 160-210; not shown: His tag or GST tag
B1: binds [1].

B2: Hec1 (other, UniProt O14777 1-80, looked up)
chain: MKRSSVSSGGAGRLSMQELRSQDVNKQGLYTPQTKEKPTFGKLSINKPTSERKVSLFGKRTSGHGSRNSQLGIFSSSEKI
notes: also called Aurora B substrate
B2: binds [2].

B3: Aurora B (endogenous) (enzyme, human, UniProt Q96GD4 1-344, looked up)
chain: MAQKENSYPWPYGRQTAPSGLSTLPQRVLRKEPVTPSALVLMSRSNVQPTAAPGQKVMENSSGTPDILTRHFTIDDFEIGRPLGKGKFGNVYLAREKKSHFIVALKVLFKSQIEKEGVEHQLRREIEIQAHLHHPNILRLYNYFYDRRRIYLILEYAPRGELYKELQKSCTFDEQRTATIMEELADALMYCHGKKVIHRDIKPENLLLGLKGELKIADFGWSVHAPSLRRKTMCGTLDYLPPEMIEGRMHNEKVDLWCIGVLCYELLVGNPPFESASHNETYRRIVKVDLKFPASVPMGAQDLISKLLRHNPSERLPLAQVSAHPWVRANSRRVLPPSALQSVA
B3 was tested, and the “Amount” value [3] was 1110 pmol.

B4: INCENP WT (region at positions 121 to 270 in INCENP) (peptide)
chain: LRRVTRAAAAAAAATMALAAPSSPTPESPTMLTKKPEDNHTQCQLVPVVEIGISERQNAEQHVTQLMSTEPLPRTLSPTPASATAPTSQGIPTSDEESTPKKSKARILESITVSSLMATPQDPKGQGVGTGRSASKLRIAQVSPGPRDSP
notes: also called INCENP 121-270; not shown: His tag or GST tag
With B4 the Kd [4] was 102 nM.

B5: INCENP 3A (region 121 to 270 of INCENP with three amino acids substituted with alanine) (peptide)
chain: LRRVTRAAAAAAAATMALAAPSSPTPESPTMLTKKPEDNHTQCQLVAVAEAGISERQNAEQHVTQLMSTEPLPRTLSPTPASATAPTSQGIPTSDEESTPKKSKARILESITVSSLMATPQDPKGQGVGTGRSASKLRIAQVSPGPRDSP
notes: also called INCENP 3A mutant; not shown: His tag or GST tag
B5: no binding [5].
